Legend:
[1] = target: CS1-BCMA-41BB-CD3 CAR (bispecific CS1-BCMA chimeric antigen receptor), expressed on T cells; assay: FACS, donor #57 T cells, goat anti-mouse F(ab)2 staining
[2] = target: CS1-BCMA-41BB-CD3 CAR (bispecific CS1-BCMA chimeric antigen receptor), expressed on T cells; assay: FACS, donor #890 T cells, goat anti-mouse F(ab)2 staining
[3] = target: BCMA-41BB-CD3-CAR (monospecific BCMA CAR), expressed on T cells; assay: FACS, donor #57 single BCMA CAR-T cells, goat anti-mouse F(ab)2 staining
[4] = target: CS1-BCMA-41BB-CD3 CAR (bispecific CS1-BCMA chimeric antigen receptor), expressed on T cells; assay: FACS of CAR-transduced T cells stained with biotinylated goat anti-mouse F(ab)2 and PE-streptavidin
[5] = target: monospecific CS1 CAR, expressed on T cells; assay: FACS, donor #57 CS1 CAR-T cells; detection reagent not named in the sentence (taken as anti-mouse F(ab)2)

CS1-BCMA-41BB-CD3 CAR (bispecific CS1-BCMA chimeric antigen receptor), expressed on T cells, sequence (chain, as listed by the source mutant): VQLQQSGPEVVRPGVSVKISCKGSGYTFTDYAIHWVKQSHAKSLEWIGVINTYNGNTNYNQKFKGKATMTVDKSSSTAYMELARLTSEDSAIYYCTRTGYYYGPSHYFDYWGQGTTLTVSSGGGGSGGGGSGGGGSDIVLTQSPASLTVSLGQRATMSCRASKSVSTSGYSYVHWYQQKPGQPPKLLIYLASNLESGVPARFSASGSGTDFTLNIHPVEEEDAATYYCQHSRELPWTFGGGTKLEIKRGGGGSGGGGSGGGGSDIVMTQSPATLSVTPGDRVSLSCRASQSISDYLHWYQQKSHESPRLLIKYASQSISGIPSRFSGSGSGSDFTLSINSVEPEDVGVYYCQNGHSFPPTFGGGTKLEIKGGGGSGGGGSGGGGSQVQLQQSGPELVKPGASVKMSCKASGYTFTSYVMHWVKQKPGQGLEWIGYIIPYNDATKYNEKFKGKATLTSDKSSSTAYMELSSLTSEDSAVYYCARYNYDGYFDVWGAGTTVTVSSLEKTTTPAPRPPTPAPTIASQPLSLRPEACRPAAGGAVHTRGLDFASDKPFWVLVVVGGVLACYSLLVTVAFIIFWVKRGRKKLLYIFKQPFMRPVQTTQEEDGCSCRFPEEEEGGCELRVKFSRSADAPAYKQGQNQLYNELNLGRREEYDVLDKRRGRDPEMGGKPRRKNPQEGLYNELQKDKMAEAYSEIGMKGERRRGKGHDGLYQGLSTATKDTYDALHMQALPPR

proportion of CAR cells detected [1]: > 70%
proportion of CAR+ cells detected [2]: 81%
proportion of CAR cells detected [3]: 57%
percentage of CAR+ cells detected [4]: > 95%
percentage of CAR+ cells [5]: 68%
Substance: Biotin-labeled polyclonal goat anti-mouse F(ab)2 antibody (Life Technologies)

Reference: patent publication US20240082401A1
